Two molecules from publication PMC11643329, “DNA sequence-induced solid phase transition as a solution to the genome folding paradox” (Research Square, 2024) can be followed below.

T1: full length Halo-Ldb1 (Ldb1 1-411) (UniProt P70662 1-411, Halo-tag ligand Coumarin dye on the Halo tag (incubated at 1:10 molar equivalent))
T1 construct: Construct order as printed: 6x His - Halo tag - Ldb1 1-411 - stop codon in pET-duet; The EMSA legend says only 'full-length Ldb1'; This is the only full-length Ldb1 construct that the methods describe; also called full length Ldb1; FL Halo-Ldb1; source: E. coli BL21, purified (HisTrap, dialysis); not shown: Halo tag, N-terminal, kept
T1 sequence (looked up): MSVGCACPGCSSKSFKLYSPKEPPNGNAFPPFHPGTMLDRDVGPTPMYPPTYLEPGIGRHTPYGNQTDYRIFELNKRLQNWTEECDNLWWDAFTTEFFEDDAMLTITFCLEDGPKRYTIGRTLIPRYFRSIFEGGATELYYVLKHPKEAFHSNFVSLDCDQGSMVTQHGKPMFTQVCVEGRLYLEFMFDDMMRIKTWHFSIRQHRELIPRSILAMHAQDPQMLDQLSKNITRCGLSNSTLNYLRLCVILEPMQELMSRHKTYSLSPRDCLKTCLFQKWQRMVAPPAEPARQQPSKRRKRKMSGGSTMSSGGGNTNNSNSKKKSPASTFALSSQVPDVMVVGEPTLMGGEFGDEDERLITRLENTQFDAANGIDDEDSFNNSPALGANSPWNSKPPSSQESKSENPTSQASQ

B1: Ldb1 Lim interaction domain (Ldb1-LID), Sumo-Ldb1 320-375 (domain or fragment, UniProt P70662 320-375, looked up)
chain: KKKSPASTFALSSQVPDVMVVGEPTLMGGEFGDEDERLITRLENTQFDAANGIDDE
notes: Construct order as printed: 6x His - Sumo - Ldb1 320-375 - stop codon in pET28; also called truncated Ldb1 protein; Sumo-Ldb1-LID domain; source: E. coli BL21, purified (HisTrap, Superdex 75 size exclusion); not shown: Sumo, N-terminal, kept
B2: truncated Sumo-Lhx2 (Lhx2 1-350, lacks the C-terminal intrinsically disordered region) (domain or fragment, UniProt Q9Z0S2 1-350, looked up)
chain: MLFHSLSGPEVHGVIDEMDRRAKSEAPAISSAIDRGDTETTMPSISSDRAALCAGCGGKISDRYYLLAVDKQWHMRCLKCCECKLNLESELTCFSKDGSIYCKEDYYRRFSVQRCARCHLGISASEMVMRARDLVYHLNCFTCTTCNKMLTTGDHFGMKDSLVYCRLHFEALLQGEYPAHFNHADVAAAAAAAAAAKSAGLGSAGANPLGLPYYNGVGTVQKGRPRKRKSPGPGADLAAYNAALSCNENDAEHLDRDQPYPSSQKTKRMRTSFKHHQLRTMKSYFAINHNPDAKDLKQLAQKTGLTKRVLQVWFQNARAKFRRNLLRQENTGVDKTSDATLQTGTPSGPA
notes: Lhx2, LIM-homeodomain transcription factor, residues 1-350 followed by a stop codon; Construct order as printed: 6xHis - Sumo - strep II - Lhx2 in pET28b; also called truncated Lhx2; source: E. coli BL21, purified (HisTrap, HiTrap Heparin, dialysis); not shown: Sumo, N-terminal, kept

Test [1] deals with B2. In words: native gel or EMSA; purified proteins mixed with 2000 fmol ATTO-488 labelled composite motif DNA probe; Ldb1 added to DNA-bound Lhx2 and/or Ebf1; 10 mM HEPES, 150 mM NaCl, 5% glycerol, 0.5% NP-40, 1 mg/mL BSA, 0.1 mg/mL poly dI-dC; 30 minutes at 4C; 6% native gel. The note with it: both partners purified. Background: A gel shift assay detects complexes by their altered migration in electrophoresis.

Test [2] addresses T1, full length Halo-Ldb1 (Ldb1 1-411). The description is as above. The note with it: both partners purified.

Take B1: the binding result in test [1] was “binds”. In the case of B2, the binding result in test [2] is “binds”.
